The values below come from patent publication US20240252592A1 (TIANJIN INSTITUTE OF PHARMACEUTICAL RESEARCH, published 2024).

The target in one experiment is human GLP-1 receptor (human, UniProt P43220 24-463). In words: cell-based or functional assay.
The next experiment concerns the target GC receptor. In words: cell-based or functional assay.

B1: Compound 16 (peptide)
peptide: HXQGTFTSDKSKYLEERAAKEFIAWLLEGGPSSG
HELM: PEPTIDE1{H.[Aib].Q.G.T.F.T.S.D.K.S.K.Y.L.E.E.R.A.A.K.E.F.I.A.W.L.L.E.G.G.P.S.S.G.[am]}|PEPTIDE2{[CCCCCCCCCCCCCCCC(=O)[*:2]].[gGlu].[gGlu]}$PEPTIDE1,PEPTIDE2,10:R3-3:R2$$$V2.0; N-terminus assumed
SMILES: CCCCCCCCCCCCCCCC(=O)N[C@@H](CCC(=O)N[C@@H](CCC(=O)NCCCC[C@H](NC(=O)[C@H](CC(=O)O)NC(=O)[C@H](CO)NC(=O)[C@@H](NC(=O)[C@H](Cc1ccccc1)NC(=O)[C@@H](NC(=O)CNC(=O)[C@H](CCC(N)=O)NC(=O)C(C)(C)NC(=O)[C@@H](N)Cc1c[nH]cn1)[C@@H](C)O)[C@@H](C)O)C(=O)N[C@@H](CO)C(=O)N[C@@H](CCCCN)C(=O)N[C@@H](Cc1ccc(O)cc1)C(=O)N[C@@H](CC(C)C)C(=O)N[C@@H](CCC(=O)O)C(=O)N[C@@H](CCC(=O)O)C(=O)N[C@@H](CCCNC(=N)N)C(=O)N[C@@H](C)C(=O)N[C@@H](C)C(=O)N[C@@H](CCCCN)C(=O)N[C@@H](CCC(=O)O)C(=O)N[C@@H](Cc1ccccc1)C(=O)N[C@H](C(=O)N[C@@H](C)C(=O)N[C@@H](Cc1c[nH]c2ccccc12)C(=O)N[C@@H](CC(C)C)C(=O)N[C@@H](CC(C)C)C(=O)N[C@@H](CCC(=O)O)C(=O)NCC(=O)NCC(=O)N1CCC[C@H]1C(=O)N[C@@H](CO)C(=O)N[C@@H](CO)C(=O)NCC(N)=O)[C@@H](C)CC)C(=O)O)C(=O)O
As for B1, the “EC50 of GLP-1 receptor mediated cAMP production” value in the experiment with human GLP-1 receptor was 0.405 nM. Besides, the “EC50 of GC receptor mediated cAMP production” value with GC receptor turned out to be 0.092 nM.

B2: Compound 15 (peptide)
peptide: HXQGTFTSDYSKYLXERAAKEFVXWLEAGGPSSG
HELM: PEPTIDE1{H.[Aib].Q.G.T.F.T.S.D.Y.S.K.Y.L.D.E.R.A.A.K.E.F.V.A.W.L.E.A.G.G.P.S.S.G.[am]}|PEPTIDE2{[CCCCCCCCCCCCCCCC(=O)[*:2]].[gGlu].[gGlu]}$PEPTIDE1,PEPTIDE2,20:R3-3:R2$$$V2.0; N-terminus assumed
SMILES: CCCCCCCCCCCCCCCC(=O)N[C@@H](CCC(=O)N[C@@H](CCC(=O)NCCCC[C@H](NC(=O)[C@H](C)NC(=O)[C@H](C)NC(=O)[C@H](CCCNC(=N)N)NC(=O)[C@H](CCC(=O)O)NC(=O)[C@H](CC(=O)O)NC(=O)[C@H](CC(C)C)NC(=O)[C@H](Cc1ccc(O)cc1)NC(=O)[C@H](CCCCN)NC(=O)[C@H](CO)NC(=O)[C@H](Cc1ccc(O)cc1)NC(=O)[C@H](CC(=O)O)NC(=O)[C@H](CO)NC(=O)[C@@H](NC(=O)[C@H](Cc1ccccc1)NC(=O)[C@@H](NC(=O)CNC(=O)[C@H](CCC(N)=O)NC(=O)C(C)(C)NC(=O)[C@@H](N)Cc1c[nH]cn1)[C@@H](C)O)[C@@H](C)O)C(=O)N[C@@H](CCC(=O)O)C(=O)N[C@@H](Cc1ccccc1)C(=O)N[C@H](C(=O)N[C@@H](C)C(=O)N[C@@H](Cc1c[nH]c2ccccc12)C(=O)N[C@@H](CC(C)C)C(=O)N[C@@H](CCC(=O)O)C(=O)N[C@@H](C)C(=O)NCC(=O)NCC(=O)N1CCC[C@H]1C(=O)N[C@@H](CO)C(=O)N[C@@H](CO)C(=O)NCC(N)=O)C(C)C)C(=O)O)C(=O)O
With B2, in the experiment with human GLP-1 receptor, the “EC50 of GLP-1 receptor mediated cAMP production” value was found to be 0.58 nM. The “EC50 of GC receptor mediated cAMP production” value with GC receptor was 0.148 nM.
